Source: paper PMC8699718, “A structurally conserved site in AUP1 binds the E2 enzyme UBE2G2 and is essential for ER-associated degradation” (PLoS Biology, 2021)
Positions count from the first letter of the chain named. Numbers in names are those of the source. Ends that are not written are not given here.

T1: purified UBE2G2 (UniProt P60604 1-165, ^15N-labeled for NMR)
T1 chain: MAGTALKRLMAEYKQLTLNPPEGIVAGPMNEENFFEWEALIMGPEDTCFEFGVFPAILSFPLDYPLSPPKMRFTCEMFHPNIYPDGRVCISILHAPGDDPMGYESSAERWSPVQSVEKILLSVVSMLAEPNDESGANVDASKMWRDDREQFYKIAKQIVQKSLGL

T2: UBE2G2 (Homo sapiens, UniProt P60604)
T2 construct: made in house
T2 sequence (P60604 1-165): T1 chain

T3: purified UBE2G2 (UniProt P60604 1-165, ^15N-labeled for NMR)
T3 construct: UBE2G2, purified recombinant protein used for ITC, FP, MST and NMR; also called apo-UBE2G2; ^15N-labeled UBE2G2
T3 sequence (looked up): T1 chain

B1: AUP1-FLAG: full-length epitope-tagged AUP1 (protein, UniProt Q9Y679 1-410, looked up)
chain: MELPSGPGPERLFDSHRLPGDCFLLLVLLLYAPVGFCLLVLRLFLGIHVFLVSCALPDSVLRRFVVRTMCAVLGLVARQEDSGLRDHSVRVLISNHVTPFDHNIVNLLTTCSTPLLNSPPSFVCWSRGFMEMNGRGELVESLKRFCASTRLPPTPLLLFPEEEATNGREGLLRFSSWPFSIQDVVQPLTLQVQRPLVSVTVSDASWVSELLWSLFVPFTVYQVRWLRPVHRQLGEANEEFALRVQQLVAKELGQTGTRLTPADKAEHMKRQRHPRLRPQSAQSSFPPSPGPSPDVQLATLAQRVKEVLPHVPLGVIQRDLAKTGCVDLTITNLLEGAVAFMPEDITKGTQSLPTASASKFPSSGPVTPQPTALTFAKSSWARQESLQERKQALYEYARRRFTERRAQEAD
modifications: full-length FLAG tag
B2: 2E: AUP1 point mutant; GST-AUP1 aa 292 to 410 in vitro, full-length AUP1-FLAG in cells (protein, UniProt Q9Y679 1-410, looked up, variant R382E Q383E)
Lipid droplet-regulating VLDL …: B1 chain with R382E, Q383E
modifications: GST or FLAG tag
notes: AUP1 point mutant; GST-AUP1 aa 292 to 410 in vitro, full-length AUP1-FLAG in cells
B3: 5E: AUP1 point mutant; GST-AUP1 aa 292 to 410 in vitro, full-length AUP1-FLAG in cells (protein, UniProt Q9Y679 1-410, looked up, variant R382E Q383E K390E R398E R400E)
Lipid droplet-regulating VLDL …: B1 chain with R382E, Q383E, K390E, R398E, R400E
modifications: GST or FLAG tag
notes: as for B2
B4: 2A: AUP1 point mutant R382A/Q383A (GST-AUP1 aa 292 to 410) (protein, UniProt Q9Y679 1-410, looked up, variant R382A Q383A)
Lipid droplet-regulating VLDL …: B1 chain with R382A, Q383A
modifications: GST fusion aa 292-410
B5: A397D: AUP1 point mutant; GST-AUP1 aa 292 to 410 in vitro, full-length AUP1-FLAG in cells (protein)
chain: SPDVQLATLAQRVKEVLPHVPLGVIQRDLAKTGCVDLTITNLLEGAVAFMPEDITKGTQSLPTASASKFPSSGPVTPQPTALTFAKSSWARQESLQERKQALYEYDRRRFTERRAQEAD
modifications: left off: GST, end not stated, kept
notes: as for B2
B6: Y394D: AUP1 point mutant (GST-AUP1 aa 292 to 410) (protein)
chain: B5 chain with Y103D, D106A
modifications: left off: GST, end not stated, kept
B7: L386D/Y394D: AUP1 point mutant; GST-AUP1 aa 292 to 410 in vitro, full-length AUP1-FLAG in cells (protein)
chain: B5 chain with L95D, Y103D, D106A
modifications: left off: GST, end not stated, kept
notes: as for B2
B8: G2BR^gp78 peptide (aa 574 to 600, with an added N-terminal Trp) (peptide)
peptide: WSADERQRMLVQRKDELLQQARKRFLNK
notes: N-terminal Trp residue added for peptide quantification; Natural stretch with one extra N-terminal Trp added for quantification; also called gp78 G2BR; source: synthetic peptide (GenScript)

Tests used:
[1] = biological target: T1, purified UBE2G2; test: FP
[2] = biological target: T1, purified UBE2G2; test: MST
[3] = tested on: NHK (Null Hong Kong variant of alpha1-antitrypsin); test: CHX chase: NHK degradation in HT1080 AUP1 KO cells; assay type: cell-based, human; details: for restoration of NHK degradation: full-length or deleted AUP1-FLAG re-expressed in HT1080 AUP1 KO cells, CHX 50 μg/mL
Method: Fig 1 The G2BR of AUP1 is required for ERAD of NHK. (A) HT1080 or cells in which HRD1 was knocked out by CRISPR/Cas-9 (HRD1 KO) were transfected with plasmid encoding carboxyl-terminally HA-tagged NHK. Cells were treated with CHX for the indicated times to inhibit protein synthesis and NHK-HA degradation monitored by western blot. GFP and HSP60 serve as transfection efficiency and gel loading controls, respectively. (B) HT1080 or cells in which either AUP1 or gp78 was knocked out (AUP1 KO or gp78 KO) were transfected with NHK-HA and their degradation assessed. (C) AUP1 KO cells were transfected with NHK-HA and empty vector or plasmid encoding carboxyl-terminally FLAG-tagged AUP1 and NHK degradation assessed. (D) Indicated cells were transfected with plasmid encoding carboxyl-terminally MYC-tagged INSIG-1 and assessed for INSIG-1 degradation. (E) Schematic representation of AUP1 in the ER membrane and deletion mutants used in subsequent experiments. Amino acid residues are numbered spanning each domain. (F) AUP1 KO cells were transfected with NHK-HA and plasmids encoding the indicated FLAG-tagged AUP1 WT or deletion mutants and assessed for NHK degradation. (G) HEK293 (Parental) or HEK293 AUP1 KO cells were assessed for degradation of NHK-HA. (H) HEK293 AUP1 KO cells were assessed for NHK-HA degradation as in (F). Markers represent apparent molecular weight in kDa. The data underlying this figure can be found in S1 Data. aa, amino acid; AUP1, ancient ubiquitous protein 1; CHX, cycloheximide; ER, endoplasmic reticulum; ERAD, endoplasmic reticulum–associated degradation; G2BR, UBE2G2 Binding Region; KO, knockout; NHK, Null Hong Kong; WT, wild type.
(§1) Fig 6 Disruption of UBE2G2:G2BR^AUP1 interaction abrogates AUP1 function in cells. (A) GST or indicated GST-AUP1 fusions (aa 292 to 410, expression shown in Coomassie-stained gel) were immobilized on glutathione beads and binding to ^35S-UBE2G2 was assessed as in Fig 3A. Mutations include 2A (R382A/Q383A), 2E (R382E/Q383E), and 5E (R382E/Q383E/K390E/R398E/R400E). (B) AUP1 KO cells were transfected with NHK-HA and forms of full-length AUP1-FLAG with the indicated point mutations from (A) and NHK degradation assessed by CHX chase. (C) Binding assay performed as in (A) with AUP1 mutants predicted to disrupt hydrophobic interactions with UBE2G2. (D) Cellular assay performed as in (B) with AUP1-FLAG mutants that disrupt interactions with UBE2G2 in vitro in (C). The data underlying this figure can be found in S1 Data. aa, amino acid; AUP1, ancient ubiquitous protein 1; CHX, cycloheximide; G2BR, UBE2G2 Binding Region; KO, knockout; WT, wild type.
Fig 8 Recruitment of UBE2G2 to the ER membrane and activation by G2BR^AUP1 is required for ERAD. (A) HT1080 or AUP1 KO cells were transfected with NHK-HA and either empty vector or MYC-UBE2G2 and NHK turnover assessed by CHX chase. (B) AUP1 KO cells were transfected with NHK-HA and GFP fusions of either a scrambled G2BR sequence (SCR) or G2BR^AUP1 and NHK turnover and levels of endogenous UBE2G2 assessed. Luciferase and β-actin served as transfection efficiency and gel loading controls, respectively. (C) AUP1 KO cells were transfected with NHK-HA, MYC-UBE2G2, and either GFP-SCR or GFP-G2BR^AUP1 and NHK turnover assessed. (D) Membrane fractionation was performed on HT1080 or AUP1 KO cells transfected with either empty vector or AUP1-FLAG and localization of UBE2G2 assessed by western blotting. Localization of β-actin (cytosol) and Calnexin (ER membrane) were used as controls for cytosolic (C) and membrane (M) fractions, respectively. (E) Membrane fractionation of AUP1 KO cells transfected with either MYC-UBE2G2 or TM-UBE2G2. (F) HT1080 cells were transfected with TM-UBE2G2 and its localization assessed by confocal microscopy. Images shown are from an optical section after deconvolution. HA-tagged UBE2J2, an ER-localized E2, serves as an ER marker. […]

[4] = biological target: T2, UBE2G2; test: GST pulldown of in vitro translated 35S-UBE2G2; assay type: binding; details: GST-AUP1 aa 292 to 410 on glutathione beads, ~3 pmol GST fusion, ~0.2 pmol E2, overnight 4°C, pH 7.4
Method: Fig 3 The AUP1–UBE2G2 interaction is required for ERAD. (A) Equimolar amounts of GST-AUP1 (aa 292 to 410) or GST were immobilized on glutathione beads and binding to the indicated in vitro translated ^35S-labeled E2s was assessed. Left panel is 5% of input used for binding. E2s are referred to by their unique alpha-numeric designation (e.g., UBE2G1 and UBE2J1). (B) HT1080 or UBE2G2 KO cells were transfected with INSIG-1-MYC and degradation assessed by CHX chase. […] (D) Cells were transfected with NHK-MYC and HA-ubiquitin and ubiquitination of NHK assessed following proteasome inhibition and IP (right panel). Left panel is 10% of total cell lysate used for IP, indicating no discernable change in total ubiquitination. (E) Levels of endogenous HRD1 were monitored by CHX chase in the indicated cell types. (F) Ubiquitination of endogenous HRD1 was assessed following IP with HRD1 antiserum. Arrow in upper panel indicates migration of unmodified HRD1. Control immunoprecipitates using rabbit serum are shown for comparison. The data underlying this figure can be found in S1 Data. aa, amino acid; AUP1, ancient ubiquitous protein 1; CHX, cycloheximide; ERAD, endoplasmic reticulum–associated degradation; IP, immunoprecipitation; KO, knockout; WT, wild type.
as §1
In vitro translated ^35S methionine-labeled E2s were generated using the E. coli T7-S30 Extract System (Promega) and excess ^35S methionine was removed by desalting twice with Zeba Spin Desalting Columns (Thermo Scientific). GST fusion proteins were quantified by Coomassie blue staining. Moreover, 0.1 μg of GST fusion protein (approximately 3 pmol) was prebound to GS 4B (GE Healthcare) and then incubated with approximately 10^5 cpm of ^35S methionine-labeled E2 (approximately 0.2 pmol) in 200 μl Binding Buffer (25 mM Tris-HCl, pH 7.4, 50 mM NaCl, 5 mM DTT, 0.5% IGEPAL CA-630) overnight at 4°C. Beads were extensively washed in Binding Buffer, resolved on Bis/Tris polyacrylamide gels under reducing conditions, dried and visualized on a Typhoon FLA 7000 (GE Healthcare). Binding was quantified using ImageQuant Software.

[5] = biological target: T3, purified UBE2G2; test: ITC; 30 μM G2BR peptide injected into 3 μM UBE2G2 in the cell, PBS pH 7.4, 25°C, one set of sites model; details: both partners purified

Row | Molecule | restoration of NHK degradation [3] | binding to UBE2G2 [4] | also measured
1 | SSWARQESLQERKQALYEYARRRFTER (also: FITC label, position not given here) [FITC-labeled G2BR^AUP1 peptide] | – | – | Kd [1]: 7.1 nM; Kd [2]: 4.3 nM
2 | B1 | restored NHK degradation | – | –
3 | B2 | restored degradation of NHK in the AUP1 KO cells, to a degree comparable to WT AUP1 | failed to disrupt UBE2G2 binding | –
4 | B3 | failed to restore NHK degradation | loss of detectable UBE2G2 binding | –
5 | B4 | – | unable to disrupt UBE2G2 binding | –
6 | B5 | failed to restore NHK degradation | Binding was similarly lost | NHK degradation, doubled amount of plasmid ([3]; repeat transfection with doubled amount of mutant, reviewer response): unable to convince ourselves that there is any significant degradation
7 | B6 | – | reduced binding | –
8 | B7 | failed to restore NHK degradation | eliminated detectable binding to UBE2G2 | –
9 | WSADERQRMLVQRKDELLQQARKRFLNK (also: FITC label, position not given here) [FITC-labeled G2BR^gp78 peptide] | – | – | Kd [1]: 15.1 nM; Kd [2]: 10 nM
10 | B8 | – | – | Kd [5]: 2.7 nM
